In publication PMC6616311, “Reconstitution of Microtubule Nucleation In Vitro Reveals Novel Roles for Mzt1” (Current Biology, 2019):

T1: Alp6-MBP (S. pombe, UniProt Q9USQ2 1-832)
T1 construct: Alp6, S. pombe γ-TuSC protein, homolog of human GCP3; also called Alp6 (homolog of human GCP3) with C-terminal MBP-6xHis tag; tagged subunit of γ-TuSC^Alp6-MBP; source: High Five insect cells (MultiBac baculovirus), coexpressed with partners; in lysate, and purified on amylose; not shown: MBP, C-terminal, kept; 6xHis, C-terminal, kept
T1 sequence (looked up): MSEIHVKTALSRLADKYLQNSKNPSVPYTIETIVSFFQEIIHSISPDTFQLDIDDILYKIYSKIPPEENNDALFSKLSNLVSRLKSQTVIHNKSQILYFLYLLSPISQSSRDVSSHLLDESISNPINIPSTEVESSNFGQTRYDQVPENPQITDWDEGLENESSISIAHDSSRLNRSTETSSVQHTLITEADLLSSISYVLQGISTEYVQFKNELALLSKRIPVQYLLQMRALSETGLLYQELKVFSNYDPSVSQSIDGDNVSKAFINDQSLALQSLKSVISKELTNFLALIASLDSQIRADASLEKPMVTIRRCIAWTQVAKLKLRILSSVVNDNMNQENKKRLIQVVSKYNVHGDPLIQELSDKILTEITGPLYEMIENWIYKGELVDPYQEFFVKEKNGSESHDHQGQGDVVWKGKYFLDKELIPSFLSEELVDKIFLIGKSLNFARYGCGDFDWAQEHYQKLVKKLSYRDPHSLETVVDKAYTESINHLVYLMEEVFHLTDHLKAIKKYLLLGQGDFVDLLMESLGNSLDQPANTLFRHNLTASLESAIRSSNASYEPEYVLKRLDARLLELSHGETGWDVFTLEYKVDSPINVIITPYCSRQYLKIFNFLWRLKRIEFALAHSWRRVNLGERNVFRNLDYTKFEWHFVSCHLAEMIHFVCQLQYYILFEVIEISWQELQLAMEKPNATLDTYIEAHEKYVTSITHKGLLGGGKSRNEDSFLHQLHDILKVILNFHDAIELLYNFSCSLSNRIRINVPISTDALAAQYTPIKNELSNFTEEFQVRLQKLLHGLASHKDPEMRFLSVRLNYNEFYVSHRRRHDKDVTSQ

B1: Alp4 (untagged) (natural protein, S. pombe, UniProt Q9Y705 1-784, looked up)
chain: MVRSISSVLAKEESENGSPIPALEEGSVYHVSLKSEGVSPFSDRIQLNYLYDGKTFSDPSNLNIHQQEACLINELLNAFMGMEGVFVHLQDMKASSEFETIIMPPSFYILPGFDLGIKDIASEMLEMGSHYLSITAFIESRSHFEYGFVNHALCAALRKFVMDYVVLIMQCENQSRIDPNFSLQTLRLYTLPTSRSLRQVYLILRDLLLSMEKNASSSDDLGLSNIDDLLEQLNEGNDISHVVNATRSKKKVCKGGQVISFLTESLTKYAGDPVARKILTYLLREASRPYTKMLNEWIHLGLVNDPYDEFMIKIHKGITSMQLDEDYTDEYWEKRYVIREDQVPPQLLDLQNKVLFAGKYLNVVLECRKGVNNLASLNAKDDTQNQLLWPSTFDDDNFTLNIMNAYVYANESLLQLLQSSQSLYAHLYSLKHYFFLDQSDFFTTFLDNAQHELRKPAKYISITKLQSQLDLALRQPGTITATDPHKEYVTVEVNQTSLIDWLMHIVSISGLEEGTSSQGNEVWNESITKQADVGNETRNFESEHNRSTQGTSKVGSDKDINGFETMQLCYKVPFPLSLILSRKAIIRYQLLFRYFLLLRHVEMQLENSWVQHSKNSAWRLNSSNAKIEQWKRNSWLLRTRMLSFVQKIIYYTTSEVIETHWGKFMGELENARTVDNLMQEHIDFLDTCLKECMLTNSRLLKVQSKLLNTCAMFASYTSTFTRSLYLLENSEESFDEGRMDKMEEILRRYEDSFSRHLKSLVNACNYFASTETAALLSLVMKLTG
notes: Alp4, S. pombe γ-TuSC protein, homolog of human GCP2; also called homolog of human GCP2; source: High Five insect cells (MultiBac baculovirus), coexpressed with partners; in lysate, and co-purified in complexes
B2: 6xHis-Mto1[bonsai] (domain or fragment, S. pombe, UniProt O94488 131-549, looked up)
chain: TTDDEQLSPVLTANQGFQSQEQYEEDSYNNYDYTSDPSSPNYISSSLDQLPHLDDEDDLQLTPIKEERNYLHSQDAPTTNALSKKISDILIPASAMKDLKDRKNALAKEFEESQPGSSLTLKEQANVIDNLRKEVFGLKLKCYFLYDQLNKFHDQEVQDIMKQNIDLKTLTMELQRAVAGYEKKISGLESRIKPDQSFNLSTPSPAPSNLITLQSRYSQALSELETTKRAFAALRKEKSKKTNYSVGAYNEDRNVLSNMLDNERREKEALLQELESLRVQLSKKVPMPAKNTDERVIETLQRSNELLRMDISMQNEALLLRKQENDRLVKQVEELTVALNSGKMNAIVEAESSKNELWDSMMVSRMKTQEQSIELTRLYKQLQDIEEDYENKLMRMEQQWREDVDQLQEYVEEITQELQ
notes: Mto1 of S. pombe (CM1-domain protein), amino acids 131-549; lacks residues 1-130 and 550-1,115; also called Mto1(131-549); source: High Five insect cells (MultiBac baculovirus), coexpressed with Mto2; in lysate, and co-purified in complexes; not shown: 6xHis, N-terminal, kept
B3: Mto1/2[bonsai] complex (complex, S. pombe)
chain 1: B2 chain
chain 2: MSEHNYQSDREVAEDPFLNYEASANQLSSNSRESTPRGSPWRAGMRSASLMTEPLEDSMYSDNNYLDNGVSFTKDENPLYSPSWPSLADANVNSMKSNNAIQEHKAAKFVSEKSLEKVSTADNNLVLQELENLRERLNQVELQLSERPSSYLGYHNNLSPYRSPNSYPSLLPSTHSPHSPAPLSTMQTALMRLRTYHPSPIILKPVEQAVNHAITLVNTSPSSVVDALCRSLAELCLGLVQEAIDASILSQQESSNSLDLVRHTPPLNYTSSVDSSPQRMASDSYGRPSLHLNDPFPSVDLQSNELSHHNVRTTLFSDDSRFHSKIHTHSTPPSQMYSAASHFRYRSDPSTRHVSNSTNKSSLHPSPTSLRVAHPIIPQRASPASQSFPSLQDTPSP
notes: Mto1 of S. pombe, amino acids 131-549 (Mto1[bonsai]); as m7; Mto2 of S. pombe; as m8; Copy numbers of the two chains in the complex are not measured here; also called 6xHis-Mto1/2[bonsai]; source: High Five insect cells (MultiBac baculovirus); coexpressed in lysate, or purified (ammonium sulfate, Ni2+ Fractogel, Superose 6); not shown: 6xHis, N-terminal, kept
B4: γ-tubulin (Gtb1), untagged (natural protein, S. pombe, UniProt P25295 1-446, looked up)
chain: MGREIITLQAGQCGNQIGSQFWQQLCLEHGIGPDGTLESFATEGVDRKDVFFYQSDDTRYIPRAILIDLEPRVVNNILSDTYGSLYNPENILITKNGGGAGNNWANGYSHAERIFEDIMDMIDREADGSDSLEGFSLLHSIAGGTGSGLGSFLLERLNDRYPKKIIQTYSVFPNSQSVSDVVVQPYNSLLALKRLTLNADSVVVLDNAALAHIAADRLHTQNPTFHQQNQLVSTVMSASTTTLRYPGYMNNDLVSIIASLIPSPRCHFLLTSYTPFTNQQVEEAKAIRKTTVLDVMRRLLLPKNQMVSVNPSKKSCFISILDIIQGEADPADVHKSLLRIRERRYASFIPWGPASIQVALSKKSPYIKTNHRVSGLMLANHTSIASLFKRTLDQYDRLRKRNAFLEQYKKEAIFEDDLNEFDSSRDVVADLINEYEACEDPNYLSL
notes: γ-tubulin Gtb1 of S. pombe; source: High Five insect cells (MultiBac baculovirus), coexpressed with partners; in lysate, and co-purified in complexes
B5: Mzt1-6xHis (natural protein, S. pombe, UniProt P0CF96 1-64, looked up)
chain: MSESTKETIEVLYEIGTLLGTELDKTTLSLCISLCENNVHPEAIAQIIREIRMAQEQTVDTEPS
notes: Mzt1 of S. pombe; also called MOZART1 homolog; source: High Five insect cells (MultiBac baculovirus); coexpressed in lysate, co-purified in complexes, or purified alone (Ni2+ IMAC, Superdex 75); not shown: 6xHis, C-terminal, kept

Assays:
Alp6-MBP [1] = molecular target: T1, Alp6-MBP; test: pull-down; amylose resin purification via Alp6-MBP from lysates of High Five cells coexpressing Alp6-MBP, Alp4 and Gtb1, with or without Mzt1-6xHis; HB100 buffer (40 mM K-HEPES, 100 mM KCl, 1 mM EGTA, 1 mM MgCl2, 0.1 mM GTP, 1 mM DTT pH 7.5), overnight 4°C, maltose elution, SDS-PAGE; settings: partners not purified
Alp6-MBP [2] = molecular target: T1, Alp6-MBP; test: cross-linking; cross-linking mass spectrometry of purified MGM holocomplex (from coexpression) with EDC/Sulfo-NHS, 1:2:4.4 (w/w/w), 90 min, 18°C, 40 mM K-HEPES, 300 mM NaCl, 1 mM MgCl2 pH 7.5; settings: both partners purified
Alp4 (untagged) = molecular target: B1; test: as above; settings: both partners purified
[3] = molecular target: the molecule itself; test: glycerol density-gradient centrifugation; 10-30% glycerol density gradient in HB100, 55,000 rpm, 4°C, 45 or 80 min; one affinity-purified complex alone, 100 μL at 1 mg/mL; S values against marker proteins
[4] = molecular target: the molecule itself; test: SEC-MALS; 100 μL of 1.98 mg/mL Mzt1 on Superdex-75 10/300 GL in 100 mM Tris, 50 mM NaCl, pH 7.5, 22°C

Binder: B1
- binding result (Alp6-MBP [1]): binds

Binder: B2
- binding result (Alp6-MBP [2]): binds
- binding result (Alp4 (untagged)): binds

Binder: B3
- binding result [3]: binds

Binder: B4
- binding result (Alp6-MBP [1]): binds

Binder: B5
- stoichiometry N [4]: 2
